Data set [1] addresses T1, 35S-labelled transcription-translation product of p28 Bap31 cDNA.
T1 chain: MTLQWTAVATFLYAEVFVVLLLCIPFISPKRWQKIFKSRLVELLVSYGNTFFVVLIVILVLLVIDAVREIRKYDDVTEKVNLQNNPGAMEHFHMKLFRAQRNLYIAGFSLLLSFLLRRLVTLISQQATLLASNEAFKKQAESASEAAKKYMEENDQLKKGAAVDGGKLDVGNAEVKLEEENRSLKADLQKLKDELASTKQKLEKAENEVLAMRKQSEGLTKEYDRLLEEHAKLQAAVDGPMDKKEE

The target in data set [2] is T2, 32P-Bcl-2Δc21/his6/HMK (human, UniProt P10415 1-218, 32P-labelled with heart muscle kinase and 32P-gamma-ATP at the C-terminal HMK recognition sequence (arg-arg-ala-ser)).
T2 construct: range 1-218; Expressed in E. coli from the pTrchis vector; a soluble mixture of monomers and dimers at pH 7.4; also called 32P-labelled Bcl-2 cytosolic domain probe
T2 sequence (P10415 other isoform, or with tags, fused parts or gaps mutant limits assumed): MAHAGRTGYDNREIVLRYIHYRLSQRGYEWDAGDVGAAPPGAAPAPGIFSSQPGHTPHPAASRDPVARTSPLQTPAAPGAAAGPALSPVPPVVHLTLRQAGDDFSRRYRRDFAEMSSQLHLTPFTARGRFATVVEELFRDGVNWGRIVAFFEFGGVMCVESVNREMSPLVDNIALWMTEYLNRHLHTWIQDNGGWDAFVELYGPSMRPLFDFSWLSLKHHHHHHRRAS
Nature of the data set: Far Western blot of purified GST fusion proteins.

In data set [3] the target is T2, 32P-Bcl-2Δc21/his6/HMK. Briefly: Far Western blot of reverse phase HPLC fractions (FIG. 2B). As for the experimental part: Aliquots of fractions eluted from the gel were assayed by ^32P-Bcl-2Δc21/his6/HMK Far Western blotting analysis, and the radioactive bands corresponding to p20 and p21 Bax were detected and quantified by Phosphorimager. The levels relative to the maximal signal detected (set at 100) were plotted as a bar graph (upper panel). […] The positions of molecular mass marker proteins are indicated. The black bars on the graph indicate p20. The white stippled bars on the graph indicate p21 Bax. Figure 2B: FIG. 2B is a reverse phase HPLC analysis ($A280$ profile; upper panel) and corresponding graph (lower panel) showing proteins eluted between 190 and 220 ml from the preparative SDS PAGE of FIG. 2A. Equal aliquots from all fractions were assayed for ^32P-Bcl-2Δc21/his6/HMK interacting protein by Far Western blotting analysis, for which only p20 was detected. Amounts relative to the maximal signal detected (set at 100) were plotted as a bar graph (lower panel). […]
Identification of the p20 Bcl-2-binding polypeptide was obtained by NH_2-terminal peptide sequence analysis of p20 following its isolation by a combination of differential solubilization in detergent, preparative SDS PAGE, and reverse phase HPLC (FIGS. 2A and 2B). […] One candidate sequence emerged, and was the only sequence that was detected in the peak fraction of Bcl-2 binding activity (fraction 54, FIG. 2B).

Data set [4] has as its target T3, Bax (transfected, 293T cells) (UniProt Q07812 1-192, limits assumed).
T3 construct: Detected with rabbit anti-Bax sc-526; also called the pro-apoptotic member of the Bcl-2 family
Briefly: anti-Flag co-immunoprecipitation, anti-Bax Western blot. The protocol: After centrifugation at 11,000 g, the supernatant was incubated with 50 µl of a 1:1 slurry of protein G Sepharose for 1 hour at 4° C. The Sepharose was removed and the supernatant incubated with mouse M2 anti-Flag antibody (IBI-A Kodak Co., New Haven, Conn.) at 4° C. for 6–8 hours, at which time 20 µl of a 1:1 slurry of proteinG Sepharose was added. After 1 hour at 4° C., the beads were recovered, washed, and boiled in SDS sample buffer. Following SDS PAGE and transfer to nitrocellulose, blots were developed with either mouse anti-Myc 9E1D antibody or mouse anti-HA 12CA5 antibody (both from Babco, Berkeley, Calif.) or rabbit anti-Bax sc-526 antibody (commercially available from Santa Cruz Biotech., Inc., Santa Cruz, Calif.).

No end group written: not given here.

T3 sequence (Q07812 whole entry): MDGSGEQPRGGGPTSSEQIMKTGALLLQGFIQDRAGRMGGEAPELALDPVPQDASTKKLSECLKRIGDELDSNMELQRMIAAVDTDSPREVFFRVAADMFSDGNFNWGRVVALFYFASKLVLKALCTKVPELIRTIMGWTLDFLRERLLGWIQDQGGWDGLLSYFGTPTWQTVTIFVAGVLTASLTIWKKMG

B1: FLICE (caspase-8) (protein)
chain: SESQTLDKVYQMKSKPRGYCLIINNHNFAKAREKVPKLHSIRDRNGTHLDAGALTTTFEELHFEIKPHDDCTVEQIYEILKIYQLMDHSNMDCFICCILSHGDKGIIYGTDGQEAPIYELTSQFTGLKCPSLAGKPKVFFIQACQGDNYQKGIPVETDSEEQPYLEMDLSSPQTRYIPDEADFLLGMATVNNCVSYRNPAEGTWYIQSLCQSLRERCPRGDDILTILTEVNYEVSNKDDKKNMGKQMPQPTFTLRKKLVFPSD
B1: the “p20 cleavage product quantitated on a Phosphorimager” value in data set [1] was “p28 Bap31 was more sensitive to cleavage by FLICE (caspase-8) than ICE (caspase-1)”.

B2: GST-p28 (1-246) (other)
chain: MTLQWTAVATFLYAEVFVVLLLCIPFISPKRWQKIFKSRLVELLVSYGNTFFVVLIVILVLLVIDAVREIRKYDDVTEKVNLQNNPGAMEHFHMKLFRAQRNLYIAGFSLLLSFLLRRLVTLISQQATLLASNEAFKKQAESASEAAKKYMEENDQLKKGAAVDGGKLDVGNAEVKLEEENRSLKADLQKLKDELASTKQKLEKAENEVLAMRKQSEGLTKEYDRLLEEHAKLQAAVDGPMDKKEE
notes: Expressed in E. coli and purified on glutathione Sepharose; The thrombin-site linker of pGEX-2T is not described; also called GST-p28 Bap31; not shown: glutathione S-transferase encoded by pGEX-2T (Pharmacia)
With B2, in the data set with 32P-Bcl-2Δc21/his6/HMK [2], the binding result is reported as “binds”.

B3: GST-p28 (122-164) (other)
chain: LISQQATLLASNEAFKKQAESASEAAKKYMEENDQLKKGAAVD
modifications: also: GST fusion
notes: Expressed in E. coli and purified on glutathione Sepharose; not shown: glutathione S-transferase encoded by pGEX-2T (Pharmacia)
B3: the binding result with 32P-Bcl-2Δc21/his6/HMK [2] is reported as “no binding”.

B4: p20 cleavage product of p28 Bap31 (other)
chain: MTLQWTAVATFLYAEVFVVLLLCIPFISPKRWQKIFKSRLVELLVSYGNTFFVVLIVILVLLVIDAVREIRKYDDVTEKVNLQNNPGAMEHFHMKLFRAQRNLYIAGFSLLLSFLLRRLVTLISQQATLLASNEAFKKQAESASEAAKKYMEENDQLKKGAAVD
notes: Endogenous product in apoptotic human KB cells, on SDS-PAGE blots; also called cleavage product "b"
For B4, in the data set with 32P-Bcl-2Δc21/his6/HMK [3], the binding result was “binds”.

B5: GST-p28 (1-164) (other)
chain: MTLQWTAVATFLYAEVFVVLLLCIPFISPKRWQKIFKSRLVELLVSYGNTFFVVLIVILVLLVIDAVREIRKYDDVTEKVNLQNNPGAMEHFHMKLFRAQRNLYIAGFSLLLSFLLRRLVTLISQQATLLASNEAFKKQAESASEAAKKYMEENDQLKKGAAVD
notes: Expressed in E. coli and purified on glutathione Sepharose; also called GST-p20; not shown: glutathione S-transferase encoded by pGEX-2T (Pharmacia)
Take B5: the binding result in the data set with 32P-Bcl-2Δc21/his6/HMK [2] is listed as “binds”.

B6: Flag-tagged p28 Bap31 (other)
chain: MTLQWTAVATFLYAEVFVVLLLCIPFISPKRWQKIFKSRLVELLVSYGNTFFVVLIVILVLLVIDAVREIRKYDDVTEKVNLQNNPGAMEHFHMKLFRAQRNLYIAGFSLLLSFLLRRLVTLISQQATLLASNEAFKKQAESASEAAKKYMEENDQLKKGAAVDGGKLDVGNAEVKLEEENRSLKADLQKLKDELASTKQKLEKAENEVLAMRKQSEGLTKEYDRLLEEHAKLQAAVDGPMDYKDDDDKAMDKKEE
As to B6, the binding result in data set [4] is recorded as “no binding”.

B7: CPP32 (caspase-3) (protein)
chain: SGISLDNSYKMDYPEMGLCIIINNKNFHKSTGMTSRSGTDVDAANLRETFRNLKYEVRNKNDLTREEIVELMRDVSKEDHSKRSSFVCVLLSHGEEGIIFGTNGPVDLKKITNFFRGDRCRSLTGKPKLFIIQACRGTELDCGIETDSGVDDDMACHKIPVEADFLYAYSTAPGYYSWRNSKDGSWFIQSLCAMLKQYADKLEFMHILTRVNRKVATEFESFSFDATFHAKKQIPCIVSMLTKELYFYH
For the molecule B7, the “cleavage of 35S-labelled p28 Bap31 in vitro (SDS-PAGE)” value in data set [1] was “little reactivity was observed for caspase-3 over a wide range of enzyme concentration”.
